# Reference: US20130101582A1, “Tiki1 and Tiki2, Wnt Inhibitors” (CHILDREN'S MEDICAL CENTER CORPORATION, priority 2010, published 2013)
# B1: Tiki2: Human Tiki2 (XP 371250/LOC388630) (SEQ ID NO:2), expressed in L or HEK293T cells (protein, listed as Homo sapiens)
# chain: MHAALAGPLLAALLATARARPQPPDGGQCRPPGSQRDLNSFLWTIRRDPPAYLFGTIHVPYTRVWDFIPDNSKAAFQASTRVYFELDLTDPYTISALASCQLLPHGENLQDVLPHELYWRLKRHLDYVKLMMPSWMTPAQRGKGLYADYLFNAIAGNWERKRPVWVMLMVNSLTERDVRFRGVPVLDLYLAQQAEKMKKTTGAVEQVEEQCHPLNNGLNFSQVLFALNQTLLQQESVRAGSLQASYTTEDLIKHYNCGDLSAVIFNHDTSQLPNFINTTLPPHEQVTAQEIDSYFRQELIYKRNERMGKRVMALLRENEDKICFFAFGAGHFLGNNTVIDILRQAGLEVDHTPAGQAIHSPAPQSPAPSPEGTSTSPAPVTPAAAVPEAPSVTPTAPPEDEDPALSPHLLLPDSLSQLEEFGRQRKWHKRQSTHQRPRQFNDLWVRIEDSTTASPPPLPLQPTHSSGTAKPPFQLSDQLQQQDPPGPASSSAPTLGLLPAIATTIAVCFLLHSLGPS
# Legend:
# Format in all cases: cell-based
# TOPFLASH reporter = TOPFLASH reporter activation by Wnt3a produced from Tiki2-expressing L cells; conditions: Wnt3a CM
# Excerpt: As Tiki proteins are related to bacterial proteins of unknown function, it was speculated that Tiki may antagonize Wnt signaling through a novel mechanism, possibly in an enzymatic fashion. Human Tiki2 was stably expressed in L cells or Wnt3a-expressing L cells (human Tiki1 was poorly expressed in L cells). […] In fact Wnt3a CM restored beta-catenin stabilization in Wnt3a-expressing cells that also expressed Tiki2 (FIG. 5A).
# Wnt3a [1] = molecular target: T1, Wnt3a (Mus musculus, UniProt P27467); experiment: Acyl-biotinyl exchange (ABE) analysis of Wnt3a produced from Tiki2-expressing cells; parameters: expressed in transfected cells; host or cells: mouse L cells (Wnt3a-expressing); HEK293T; conditions: compared to Wnt3a from control cells
# T1 sequence (P27467 19-352): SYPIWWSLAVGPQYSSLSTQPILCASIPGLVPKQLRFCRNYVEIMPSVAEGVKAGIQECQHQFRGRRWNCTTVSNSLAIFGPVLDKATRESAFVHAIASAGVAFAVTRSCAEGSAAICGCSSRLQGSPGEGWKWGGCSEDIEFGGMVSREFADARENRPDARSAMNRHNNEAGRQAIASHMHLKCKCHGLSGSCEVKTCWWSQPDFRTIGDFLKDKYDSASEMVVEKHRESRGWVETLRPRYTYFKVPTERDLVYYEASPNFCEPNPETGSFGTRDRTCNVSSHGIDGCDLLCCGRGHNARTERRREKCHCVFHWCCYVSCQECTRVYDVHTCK
# Excerpt: FIG. 6C is a gel showing the results of Acyl-biotinyl exchange (ABE) analysis of control Wnt3a or Wnt3a produced from Tiki2-expressing cells. Biotinylation of Wnt3a secreted from Tiki2-expressing cells was much reduced compared to that of Wnt3a from control cells.
# Biotinylation of Wnt3a secreted in the presence of Tiki2 was much reduced compared to that of Wnt3a from control cells (FIG. 6C). This reduction of available thioester linkage indicates depalmitoylation of Wnt3a at a cysteine residue, e.g., C77, in the presence of Tiki2
# Wnt3a [2] = molecular target: T1, Wnt3a; experiment: Metabolic labeling (az-15 / 35S) to quantify Wnt3a acylation in HEK293T cells; parameters: expressed in transfected cells; host or cells: HEK293T; conditions: co-expressed with Wnt3a in HEK293T cells; versus GFP control
# Protocol: FIG. 6E is a gel showing that Tiki2, but not the control GFP, reduces Wnt3a acylation in HEK293T cells (Top panel). The total amount of Wnt3a is constant (bottom panel).
# Metabolic labeling was performed to quantify Wnt3a acylation. Wnt3a co-expressed with GFP (control) or hTiki2 in HEK293T cells was metabolically labeled with an azido-palmitic acid analog (az-15) and [^35S]-Methionine/Cysteine. Wnt3a secreted in the culture medium was immunoprecipitated and subjected to click chemistry reaction using the Rhodamine-labeled ALK reagent (ALK-Rho), which reacts with az-15 (Charron G et al., JACS 131, 4967, 2009). The fluorescent signal indicates the acylation amount of Wnt3a whereas ^35S signal indicates the total amount of Wnt3a protein (FIG. 6E). […] Thus the maximal reduction of acylation by Tiki2 is expected to be 50% if the deacylation is complete and there are only two acylation sites. The 31% reduction we observed is consistent with the possibility of three acylation sites, although it is also possible that there are only two acylation sites in Wnt3a, and Tiki2 deacylation of one of these two sites was incomplete in our experiment.
molecule,measurement,setting,value
B1,Activity of Wnt3a produced from Tiki2-expressing L cells in activation of TOPFLASH reporter expression,TOPFLASH reporter,minimal activity
same,Biotinylation of secreted Wnt3a in ABE assay,Wnt3a [1],much reduced
same,Reduction of Wnt3a acylation,Wnt3a [2],about 31%
